Assay results as given in patent US20150147274A1 (CANCER RESEARCH TECHNOLOGY, published 2015).
Numbering of substitutions follows the chain as printed. Values belong to the molecule of their own block, whether it stands above or below them.

What was measured:
[1] = target: human MET (c-Met) on cells (SKOV-3, BxPC3) (human) (UniProt P08581); test: cell-based or functional assay
[2] = target: MET928 (cMET protein derived from construct 25-928) (human) (UniProt P08581); test: Biacore SPR, MET928-coated surface, 1:1 kinetic analysis
Sequence of MET928 (cMET protein derived from construct 25-928) (human) (P08581 25-928): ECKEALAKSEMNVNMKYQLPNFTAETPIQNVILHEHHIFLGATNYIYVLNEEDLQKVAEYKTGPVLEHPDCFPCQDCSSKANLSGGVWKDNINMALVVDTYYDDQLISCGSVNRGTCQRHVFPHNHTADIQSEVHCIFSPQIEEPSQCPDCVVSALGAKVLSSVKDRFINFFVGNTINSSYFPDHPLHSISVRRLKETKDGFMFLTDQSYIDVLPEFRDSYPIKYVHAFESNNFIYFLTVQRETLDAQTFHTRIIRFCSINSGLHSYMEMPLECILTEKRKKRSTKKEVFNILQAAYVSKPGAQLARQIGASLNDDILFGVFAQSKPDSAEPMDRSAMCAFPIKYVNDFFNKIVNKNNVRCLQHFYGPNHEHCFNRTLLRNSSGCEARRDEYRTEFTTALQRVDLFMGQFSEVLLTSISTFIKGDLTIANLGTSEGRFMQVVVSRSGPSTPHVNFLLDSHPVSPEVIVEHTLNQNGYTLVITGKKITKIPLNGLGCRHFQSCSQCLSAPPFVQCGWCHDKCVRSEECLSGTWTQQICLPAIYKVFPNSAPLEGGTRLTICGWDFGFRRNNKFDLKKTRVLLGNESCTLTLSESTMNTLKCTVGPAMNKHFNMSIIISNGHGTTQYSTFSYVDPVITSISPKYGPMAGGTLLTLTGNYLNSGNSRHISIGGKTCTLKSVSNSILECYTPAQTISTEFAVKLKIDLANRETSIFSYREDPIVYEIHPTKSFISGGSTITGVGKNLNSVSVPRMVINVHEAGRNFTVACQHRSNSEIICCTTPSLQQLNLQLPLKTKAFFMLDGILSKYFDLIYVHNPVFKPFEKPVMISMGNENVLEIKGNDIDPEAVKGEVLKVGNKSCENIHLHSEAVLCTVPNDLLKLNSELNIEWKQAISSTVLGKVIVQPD

[3] = target: T1, MET928 (cMET protein derived from construct 25-928) (human, UniProt P08581 25-928); test: Biacore SPR, MET928-coated surface
T1 construct: MET ectodomain, residues 1-24 are the leader; produced in Lec 8 cells; background text says the ectodomain is furin-cleaved into alpha (25-307) and beta chains; biotinylated form used in selections; also called MET928 extracellular domain; Met extracellular domain
T1 sequence (P08581 25-928): as above
Source text: Since scFv can multimerise, possibly complicating analysis, we also analysed the biological activity of monomeric 7A2 scFv. 8×His-tagged 7A2 scFv (Table 14) was expressed in P. pastoris induced with Methanol over 3 days. Conditioned media was concentrated using a Sartorius Slice Disposable (10 kD nominal molecular weight cut-off) and the scFv purified on a HisTrap column (GE Life Sciences). Monomeric 7A2 scFv (FIG. 11) was isolated by size exclusion using a Superdex 200 16/60 prep grade column (GE Life Sciences).

[4] = target: T1, MET928 (cMET protein derived from …); test: Biacore SPR, MET-928 on chip, scFv format
Experimental: (§1) The binding characteristics of 7A2 and its derivatives were measured using a GE Healthcare Biacore biosensor.

[5] = target: T2, human MET (c-Met) on cells (SKOV-3, BxPC3) (human, UniProt P08581 25-1390); test: cell-based or functional assay
T2 sequence (P08581 25-1390): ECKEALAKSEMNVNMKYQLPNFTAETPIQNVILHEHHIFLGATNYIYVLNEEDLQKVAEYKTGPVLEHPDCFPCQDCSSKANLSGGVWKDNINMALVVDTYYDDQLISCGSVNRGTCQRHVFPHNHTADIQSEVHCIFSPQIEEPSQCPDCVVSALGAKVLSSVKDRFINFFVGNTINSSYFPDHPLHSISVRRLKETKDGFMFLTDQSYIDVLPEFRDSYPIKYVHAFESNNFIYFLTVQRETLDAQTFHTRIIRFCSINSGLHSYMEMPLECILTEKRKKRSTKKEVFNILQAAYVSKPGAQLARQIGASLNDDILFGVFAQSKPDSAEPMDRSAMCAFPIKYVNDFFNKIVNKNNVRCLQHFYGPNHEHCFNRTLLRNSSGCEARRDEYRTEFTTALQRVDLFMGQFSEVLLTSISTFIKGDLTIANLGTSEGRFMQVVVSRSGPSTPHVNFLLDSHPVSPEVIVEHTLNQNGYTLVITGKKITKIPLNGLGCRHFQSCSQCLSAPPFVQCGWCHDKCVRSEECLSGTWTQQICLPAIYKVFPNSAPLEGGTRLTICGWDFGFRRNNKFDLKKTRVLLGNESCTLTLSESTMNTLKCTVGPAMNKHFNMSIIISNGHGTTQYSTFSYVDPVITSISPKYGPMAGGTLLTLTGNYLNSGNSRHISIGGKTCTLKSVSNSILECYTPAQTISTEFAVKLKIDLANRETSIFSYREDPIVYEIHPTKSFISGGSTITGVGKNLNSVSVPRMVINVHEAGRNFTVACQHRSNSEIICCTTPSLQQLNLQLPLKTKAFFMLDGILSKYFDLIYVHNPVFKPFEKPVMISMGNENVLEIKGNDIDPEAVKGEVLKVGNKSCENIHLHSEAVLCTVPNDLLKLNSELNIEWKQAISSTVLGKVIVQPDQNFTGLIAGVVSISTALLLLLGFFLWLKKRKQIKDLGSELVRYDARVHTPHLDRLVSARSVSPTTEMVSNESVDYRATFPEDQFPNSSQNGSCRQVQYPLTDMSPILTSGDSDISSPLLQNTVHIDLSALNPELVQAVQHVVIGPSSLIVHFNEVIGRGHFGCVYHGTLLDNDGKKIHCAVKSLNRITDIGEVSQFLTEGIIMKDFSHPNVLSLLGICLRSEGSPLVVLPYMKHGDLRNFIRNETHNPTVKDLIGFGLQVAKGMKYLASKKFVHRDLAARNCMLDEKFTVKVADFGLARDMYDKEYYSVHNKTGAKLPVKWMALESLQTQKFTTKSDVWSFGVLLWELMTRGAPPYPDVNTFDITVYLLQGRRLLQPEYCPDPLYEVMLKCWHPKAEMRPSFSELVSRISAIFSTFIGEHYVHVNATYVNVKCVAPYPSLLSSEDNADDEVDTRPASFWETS

[6] = target: T2, human MET (c-Met) on cells (SKOV-3, …); test: cell-based or functional assay; remark: listed apart in the source
[7] = target: T1, MET928 (cMET protein derived from …); test: Biacore SPR, MET-928 on chip, Fab format
Experimental: as §1

[8] = target: T3, MET567 (MET extracellular domain aa 25-567) (human, UniProt P08581 25-567); test: analytical size exclusion chromatography (Superdex 200 10/300) [Cont.]
T3 construct: beta-propeller + cystine-rich domain
T3 sequence (P08581 25-567): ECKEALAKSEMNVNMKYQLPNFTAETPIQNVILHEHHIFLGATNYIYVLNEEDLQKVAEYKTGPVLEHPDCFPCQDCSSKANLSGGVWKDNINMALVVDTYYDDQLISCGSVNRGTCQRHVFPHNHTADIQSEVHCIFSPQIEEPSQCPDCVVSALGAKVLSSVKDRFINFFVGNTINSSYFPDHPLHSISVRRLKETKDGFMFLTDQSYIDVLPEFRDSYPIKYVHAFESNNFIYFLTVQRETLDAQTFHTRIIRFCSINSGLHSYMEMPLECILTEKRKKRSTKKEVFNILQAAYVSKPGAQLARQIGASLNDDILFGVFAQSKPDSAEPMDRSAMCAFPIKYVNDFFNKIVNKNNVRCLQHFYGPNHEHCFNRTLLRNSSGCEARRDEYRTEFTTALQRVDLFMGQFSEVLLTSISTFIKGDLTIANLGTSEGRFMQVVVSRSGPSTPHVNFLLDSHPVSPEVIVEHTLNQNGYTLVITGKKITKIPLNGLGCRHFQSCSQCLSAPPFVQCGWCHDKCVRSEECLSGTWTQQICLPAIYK
Experimental: Epitope location was analysed by analytical size exclusion chromatography. […] The mixtures were then centrifuged to remove any debris and analysed on a Superdex 200 10/300 size exclusion column (GE Life Sciences).

[9] = target: T1, MET928 (cMET protein derived from …); test: Biacore SPR, MET928-coated surface, 1:1 kinetic analysis
Source text: In FIG. 15, “hinged” His-tagged, IMAC-purified Fabs were used.

[10] = target: T1, MET928 (cMET protein derived from …); test: Biacore SPR

Sequence of human MET (c-Met) on cells (SKOV-3, BxPC3) (human) (P08581 25-1390): as the sequence (P08581 25-1390) above

Molecule: 5D5 Fab (His-tagged)
Fab concentration (nanomolar) giving 50% inhibition of HGF/SF-induced SKOV-3 migration, MEAN [1]: 101 nM
Fab concentration (nanomolar) giving 50% inhibition of HGF/SF-induced SKOV-3 migration, MEDIAN [1]: 91 nM
Kd [2]: 6.9 nM
koff [2]: 0.00081 s⁻¹
kon [2]: 120000 M⁻¹ s⁻¹

Molecule: 5D5 scFv
IC50 (nM), inhibition of HGF/SF-induced migration of SKOV-3 cells, Assay 1 [1]: 116 nM
IC50 (nM), inhibition of HGF/SF-induced migration of SKOV-3 cells, Assay 2 [1]: 83.6 nM
IC50 (nM), inhibition of HGF/SF-induced migration of SKOV-3 cells, Mean [1]: 99.6 nM

B2: 7A2 scFv (expressed in E. coli, 6xHis/tri-Flag tags) (scFv)
scFv: QMQLVQSGAEVKKPGAPVKVSCKVSGYTFTDYYMHWVQQAPGKGLEWMGLVDPEDGETIYAEKFQGRVTITADTSTDTAYMELSSLRSEDTAVYYCATDATTPYYGMDVWGQGTLVTVSSLEGGGGSGGGGSGGGASDIQMTQSPSSLSASVGDRVTITCQASQDISNYLNWYQQKPGRAPKVLIYDASNLETGVPSRFSGSGSGTEFTLTISNLRPDDFATYYCQQGDSFPLTFGGGTKVEIK
notes: also called 084-G02; antibody 7A2; not shown: 6xHis/tri-FLAG tags of pSANG10-3F
Kd [4]: 12.3 nM
koff [4]: 0.646 s⁻¹
kon [4]: 5.25e+07 M⁻¹ s⁻¹
IC50 (nM), inhibition of HGF/SF-induced migration of SKOV-3 cells, Assay 1 [5]: 2.1 nM
IC50 (nM), inhibition of HGF/SF-induced migration of SKOV-3 cells, Assay 2 [5]: 2.5 nM
IC50 (nM), inhibition of HGF/SF-induced migration of SKOV-3 cells, Mean [5]: 2.3 nM

B4: 110_A01 scFv (6xHis/tri-Flag tags) (scFv)
scFv: B2 scFv with Y105W, G106F, M107P, D108Y, V109L
notes: 7A2 derivative, only VH CDR3 changed; also called 110_A1; not shown: 6xHis/tri-FLAG tags of pSANG10-3F
Kd [4]: 0.322 nM
koff [4]: 0.00163 s⁻¹
kon [4]: 5.05e+06 M⁻¹ s⁻¹

B7: 107_A08 scFv (6xHis/tri-Flag tags) (scFv)
scFv: B2 scFv with Y105W, D108V, V109E
notes: 7A2 derivative, only VH CDR3 changed; not shown: 6xHis/tri-FLAG tags of pSANG10-3F
Kd [4]: 0.274 nM
koff [4]: 0.00691 s⁻¹
kon [4]: 2.52e+07 M⁻¹ s⁻¹

B10: 7A2 Fab (His- and FLAG-tagged, hinged format) (Fab, V domains shown)
VH: QMQLVQSGAEVKKPGAPVKVSCKVSGYTFTDYYMHWVQQAPGKGLEWMGLVDPEDGETIYAEKFQGRVTITADTSTDTAYMELSSLRSEDTAVYYCATDATTPYYGMDVWGQGTLVTVSS
VL: DIQMTQSPSSLSASVGDRVTITCQASQDISNYLNWYQQKPGRAPKVLIYDASNLETGVPSRFSGSGSGTEFTLTISNLRPDDFATYYCQQGDSFPLTFGGGTKVEIK
notes: Fab from pBIOCAM7-3F in HEK293 cells, hinged format (Leu-Glu after VH), hexahistidine and tri-FLAG tags at the C-terminus of the heavy chain
IC50, inhibition of HGF/SF-induced migration of SKOV-3 cells, Assay 1 [6]: 387 nM
IC50, inhibition of HGF/SF-induced migration of SKOV-3 cells, Assay 2 [6]: 493 nM
IC50, inhibition of HGF/SF-induced migration of SKOV-3 cells, Assay 3 [6]: 278 nM
Mean IC50, inhibition of HGF/SF-induced migration of SKOV-3 cells [6]: 386 nM
Kd [7]: 77.3 nM
koff [7]: 0.0882 s⁻¹
kon [7]: 1.14e+06 M⁻¹ s⁻¹

B13: 107_A08 Fab (His/tri-FLAG tagged, hinged) (Fab, V domains shown)
VH: B10 VH with Y105W, D108V, V109E
VL: B10 VL
notes: Fab from pBIOCAM7-3F, hinged, hexahistidine and tri-FLAG tags on the heavy chain
IC50, inhibition of HGF/SF-induced migration of SKOV-3 cells, Assay 1 [6]: 10.5 nM
Mean IC50, inhibition of HGF/SF-induced migration of SKOV-3 cells [6]: 10.5 nM
Kd [7]: 2.29 nM
koff [7]: 0.00192 s⁻¹
kon [7]: 838000 M⁻¹ s⁻¹

B15: 110_A01 Fab (His/tri-FLAG tagged, hinged) (Fab, V domains shown)
VH: B10 VH with Y105W, G106F, M107P, D108Y, V109L
VL: B10 VL
notes: as for B13
IC50, inhibition of HGF/SF-induced migration of SKOV-3 cells, Assay 1 [6]: 9.6 nM
IC50, inhibition of HGF/SF-induced migration of SKOV-3 cells, Assay 2 [6]: 27 nM
IC50, inhibition of HGF/SF-induced migration of SKOV-3 cells, Assay 3 [6]: 2.6 nM
Mean IC50, inhibition of HGF/SF-induced migration of SKOV-3 cells [6]: 13.1 nM
Kd [7]: 1.23 nM
koff [7]: 0.00137 s⁻¹
kon [7]: 1.12e+06 M⁻¹ s⁻¹

B17: 107_A07 Fab (His/tri-FLAG tagged, hinged) (Fab, V domains shown)
VH: B10 VH with Y105W, D108M, V109W
VL: B10 VL
notes: Fab from pBIOCAM7-3F in HEK293 cells, hinged format (Leu-Glu after VH), hexahistidine and tri-FLAG tags on the heavy chain
IC50, inhibition of HGF/SF-induced migration of SKOV-3 cells, Assay 1 [6]: 9.7 nM
IC50, inhibition of HGF/SF-induced migration of SKOV-3 cells, Assay 2 [6]: 9.2 nM
IC50, inhibition of HGF/SF-induced migration of SKOV-3 cells, Assay 3 [6]: 3.1 nM
Mean IC50, inhibition of HGF/SF-induced migration of SKOV-3 cells [6]: 7.4 nM
Kd [7]: 1.23 nM
koff [7]: 0.00116 s⁻¹
kon [7]: 949000 M⁻¹ s⁻¹

B18: 107_A01 Fab (His/tri-FLAG tagged, hinged) (Fab, V domains shown)
VH: B10 VH with Y105W, D108V, V109S
VL: B10 VL
notes: as for B13
IC50, inhibition of HGF/SF-induced migration of SKOV-3 cells, Assay 1 [6]: 9.7 nM
IC50, inhibition of HGF/SF-induced migration of SKOV-3 cells, Assay 3 [6]: 11.4 nM
Mean IC50, inhibition of HGF/SF-induced migration of SKOV-3 cells [6]: 10.6 nM
Kd [7]: 1.43 nM
koff [7]: 0.00123 s⁻¹
kon [7]: 863000 M⁻¹ s⁻¹

Continued, in another order:

Kd [3]: 3.62 nM
koff [3]: 0.00212 s⁻¹
kon [3]: 586000 M⁻¹ s⁻¹
B1: monomeric 7A2 scFv (8xHis-tagged, expressed in P. pastoris) (scFv)
scFv: EAEAQMQLVQSGAEVKKPGAPVKVSCKVSGYTFTDYYMHWVQQAPGKGLEWMGLVDPEDGETIYAEKFQGRVTITADTSTDTAYMELSSLRSEDTAVYYCATDATTPYYGMDVWGQGTLVTVSSLEGGGGSGGGGSGGGASDIQMTQSPSSLSASVGDRVTITCQASQDISNYLNWYQQKPGRAPKVLIYDASNLETGVPSRFSGSGSGTEFTLTISNLRPDDFATYYCQQGDSFPLTFGGGTKVEIKRPRHHHHHHHH
notes: Monomer isolated by size exclusion chromatography

Kd [4]: 0.183 nM
koff [4]: 0.00549 s⁻¹
kon [4]: 3.01e+07 M⁻¹ s⁻¹
B3: 111_D06 scFv (6xHis/tri-Flag tags) (scFv)
scFv: B2 scFv with Y105W, D108W, V109Q
notes: as for B7

Kd [4]: 0.786 nM
koff [4]: 0.00238 s⁻¹
kon [4]: 3.03e+06 M⁻¹ s⁻¹
B5: 112_G01 scFv (6xHis/tri-Flag tags) (scFv)
scFv: B2 scFv with Y105W, D108W, V109H
notes: not shown: 6xHis/tri-FLAG tags

Kd [4]: 0.301 nM
koff [4]: 0.00273 s⁻¹
kon [4]: 9.08e+06 M⁻¹ s⁻¹
B6: 110_A10 scFv (6xHis/tri-Flag tags) (scFv)
scFv: B2 scFv with Y105W, D108Q, V109T
notes: as for B7

Kd [4]: 0.121 nM
koff [4]: 0.00417 s⁻¹
kon [4]: 3.45e+07 M⁻¹ s⁻¹
B8: 110_A06 scFv (6xHis/tri-Flag tags) (scFv)
scFv: B2 scFv with Y105W, D108Q, V109L
notes: 7A2 derivative, only VH CDR3 changed; also called 110_A6; not shown: 6xHis/tri-FLAG tags of pSANG10-3F

Kd [4]: 0.958 nM
koff [4]: 0.00156 s⁻¹
kon [4]: 1.63e+06 M⁻¹ s⁻¹
B9: 110_A12 scFv (6xHis/tri-Flag tags) (scFv)
scFv: B2 scFv with Y105W, G106F, M107P, D108R, V109E
notes: as for B7

Kd [9]: 4.2 nM
koff [9]: 0.0075 s⁻¹
kon [9]: 1.8e+06 M⁻¹ s⁻¹
B11: 107_A07 Fab (tagless, native, i.e. not hinged) (Fab, V domains shown)
VH: B10 VH with Y105W, D108M, V109W
VL: DIQMTQSPSSLSASVGDRVTITCQASQDISNYLNWYQQKPGRAPKVLIYDASNLETGVPSRFSGSGSGTEFTLTISNLRPDDFATYYCQQGDSFPLTFGGGTKVEIKR
binding result [8]: no binding (tested: 6 µM Fab with 4 µM MET567)

Kd [10]: 181 nM
koff [10]: 0.108 s⁻¹
kon [10]: 597000 M⁻¹ s⁻¹
B12: 7A2 Fab (tagless, hinged) (Fab, V domains shown)
VH: B10 VH
VL: B11 VL
notes: Purified on KappaSelect; also called Tagless 7A2
binding result [8]: no binding (tested: 6 µM Fab with 4 µM MET567)

Kd [7]: 2.29 nM
koff [7]: 0.00197 s⁻¹
kon [7]: 860000 M⁻¹ s⁻¹
B14: 111_D06 Fab (His/tri-FLAG tagged, hinged) (Fab, V domains shown)
VH: B10 VH with Y105W, D108W, V109Q
VL: B10 VL
notes: as for B13

Kd [7]: 1.9 nM
koff [7]: 0.00128 s⁻¹
kon [7]: 677000 M⁻¹ s⁻¹
B16: 110_A06 Fab (His/tri-FLAG tagged, hinged) (Fab, V domains shown)
VH: B10 VH with Y105W, D108Q, V109L
VL: B10 VL
notes: as for B13

Kd [7]: 2.79 nM
koff [7]: 0.00161 s⁻¹
kon [7]: 577000 M⁻¹ s⁻¹
B19: 110_A12 Fab (His/tri-FLAG tagged, hinged) (Fab, V domains shown)
VH: B10 VH with Y105W, G106F, M107P, D108R, V109E
VL: B10 VL
notes: as for B13

Kd [7]: 2.23 nM
koff [7]: 0.00168 s⁻¹
kon [7]: 756000 M⁻¹ s⁻¹
B20: 110_A10 Fab (His/tri-FLAG tagged, hinged) (Fab, V domains shown)
VH: B10 VH with Y105W, D108Q, V109T
VL: B10 VL
notes: as for B13
